B1: Hammerhead Ribozyme (parent)
chain: ACCGGAUGUGCUUUCCGGUCUGAUGAGUCCGUGAGGACGAAACAG

Variants of: B1
Test: self-cleavage, relative activity (ratio to wild type); higher = more cleavage; co-transcriptional

Variant	self-cleavage
U7C U9G	0.667
U7C U12A	1.42
U7C U12C	1.09
U7C U12G	1.43
U7C U13A	1.22
U7C U13C	1.4
U7C U13G	0.7
U7C U14A	1.26
U7C U14C	0.585
U7C U14G	0.975
U7C U19A	0.397
U7C U19C	0.526
U7C U19G	0.413
U7C U21A	0.327
U7C U21C	0.403
U7C U21G	0.449
U7C U24A	1.4
U7C U24C	1.24
U7C U24G	0.742
U7C U28A	0.504
U7C U28C	0.792
U7C U28G	0.538
U7C U32A	1.02
U7C U32C	0.949

Variant	self-cleavage
U7C U32G	0.626
U7G	1.37
U7G A23C	0.243
U7G A23G	0.273
U7G A23U	0.228
U7G A26C	0.265
U7G A26G	0.289
U7G A26U	0.717
U7G A34C	1.44
U7G A34G	1.67
U7G A34U	1.53
U7G A37C	1.29
U7G A37G	0.928
U7G A37U	0.683
U7G A40C	0.396
U7G A40G	0.291
U7G A40U	0.401
U7G A41C	0.422
U7G A41G	0.408
U7G A41U	0.342
U7G A42C	0.271
U7G A42G	0.33
U7G A42U	0.326
U7G A44C	0.411

Variant	self-cleavage
U7G A44G	1.82
U7G A44U	0.422
U7G C11A	1.6
U7G C11G	1.52
U7G C11U	1.12
U7G C15A	0.89
U7G C15G	0.699
U7G C15U	1.26
U7G C16A	0.989
U7G C16G	0.765
U7G C16U	1.4
U7G C20A	0.359
U7G C20G	0.386
U7G C20U	0.447
U7G C29A	0.642
U7G C29G	0.488
U7G C29U	1.02
U7G C30A	1.21
U7G C30G	1.19
U7G C30U	1.34
U7G C38A	0.502
U7G C38G	0.521
U7G C38U	1.4
U7G C43A	0.382

Variant	self-cleavage
U7G C43G	0.427
U7G C43U	0.389
U7G G8A	1.29
U7G G8C	1.37
U7G G8U	1.36
U7G G10A	1.72
U7G G10C	1.74
U7G G10U	1.46
U7G G17A	0.666
U7G G17C	0.552
U7G G17U	0.548
U7G G18A	0.807
U7G G18C	0.464
U7G G18U	0.46
U7G G22A	0.33
U7G G22C	0.389
U7G G22U	0.369
U7G G25A	0.272
U7G G25C	0.363
U7G G25U	0.333
U7G G27A	0.81
U7G G27C	0.763
U7G G27U	0.511
U7G G31A	1.25

Variant	self-cleavage
U7G G31C	0.968
U7G G31U	1.18
U7G G33A	1.34
U7G G33C	1.23
U7G G33U	1.32
U7G G35A	0.654
U7G G35C	0.979
U7G G35U	0.911
U7G G36A	0.624
U7G G36C	0.557
U7G G36U	0.735
U7G G39A	0.369
U7G G39C	0.293
U7G G39U	0.365
U7G G45A	0.559
U7G G45C	0.441
U7G G45U	0.526
U7G U9A	1.19
U7G U9C	1.18
U7G U9G	1.35
U7G U12A	1.24
U7G U12C	1.42
U7G U12G	1.23
U7G U13A	1.66

Variant	self-cleavage
U7G U13C	1.45
U7G U13G	1.67
U7G U14A	1.46
U7G U14C	0.944
U7G U14G	0.831
U7G U19A	0.398
U7G U19C	0.512
U7G U19G	0.304
U7G U21A	0.345
U7G U21C	0.641
U7G U21G	0.426
U7G U24A	1.4
U7G U24C	1.23
U7G U24G	1.92
U7G U28A	0.991
U7G U28C	1.36
U7G U28G	0.502
U7G U32A	1.49
U7G U32C	1.03
U7G U32G	0.796
G8A	1.05
G8A A23C	0.396
G8A A23G	0.325
G8A A23U	0.383

Variant	self-cleavage
G8A A26C	0.577
G8A A26G	0.371
G8A A26U	0.899
G8A A34C	0.936
G8A A34G	1.06
G8A A34U	0.89
G8A A37C	1.06
G8A A37G	0.966
G8A A37U	0.731
G8A A40C	0.683
G8A A40G	0.235
G8A A40U	0.343
G8A A41C	0.353
G8A A41G	0.331
G8A A41U	0.323
G8A A42C	0.373
G8A A42G	0.306
G8A A42U	0.297
G8A A44C	0.508
G8A A44G	1.41
G8A A44U	0.648
G8A C11A	1.28
G8A C11G	1.18

Reference: the RNAGym collection of RNA variant scans (doi:10.7554/elife.80360)
